Patent US20210101982A1 (Seagen, published 2021)
Changes are numbered by the printed parent chain.

B1: SG-559-02 - vc-MMAE (antibody, human IgG1, kappa, V domains shown)
VH: QVQLVQSGAEVKKPGSSVKVSCKTSGDTFSTYAISWVRQAPGQGLEWMGGIIPIFGKAHYAQKFQGRVTITADESTSTAYMELSSLRSEDTAVYFCARKFHFVSGSPFGMDVWGQGTTVTVSS
VL: EIVLTQSPATLSLSPGERATLSCRASQSVSSALAWYQQKPGQAPRLLIYDASNRATGIPARFSGSGSGTDFTLTISSLEPEDFAVYYCQQRSNWPTFGQGTKVEIKR
modifications: vc-MMAE drug-linker, average DAR of 4; sites not stated in the example
B2: SG-559-02 - MP-PEG8-VKG-Camptothecin (antibody, human IgG1, kappa, V domains shown)
VH: B1 VH
VL: B1 VL
modifications: MP-PEG8-VKG-Camptothecin drug-linker, average DAR of 8; sites not stated in the example
B3: SG-559-03 - vc-MMAE (antibody, human IgG1, kappa, V domains shown)
VH: B1 VH
VL: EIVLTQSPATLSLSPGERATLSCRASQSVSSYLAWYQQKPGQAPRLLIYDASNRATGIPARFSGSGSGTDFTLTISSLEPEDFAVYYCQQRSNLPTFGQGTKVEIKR
modifications: vc-MMAE drug-linker, average DAR of 4; sites not stated in the example
B4: SG-559-04 - MP-PEG8-VKG-Camptothecin (antibody, human IgG1, kappa, V domains shown)
VH: B1 VH with P107G
VL: not shown
modifications: MP-PEG8-VKG-Camptothecin drug-linker, average DAR of 8; sites not stated in the example
B5: SG-559-04 - vc-MMAE (antibody, human IgG1, kappa, V domains shown)
VH: B1 VH with P107G
VL: not shown
modifications: vc-MMAE drug-linker, average DAR of 4; sites not stated in the example
B6: SG-559-03 - MP-PEG8-VKG-Camptothecin (antibody, human IgG1, kappa, V domains shown)
VH: B1 VH
VL: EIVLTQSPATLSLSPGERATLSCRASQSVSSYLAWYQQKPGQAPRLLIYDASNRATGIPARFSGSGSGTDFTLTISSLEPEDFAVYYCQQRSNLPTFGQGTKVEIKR
modifications: MP-PEG8-VKG-Camptothecin drug-linker, average DAR of 8; sites not stated in the example
B7: SG-559-06 (antibody, human IgG1, kappa, V domains shown)
VH: B1 VH with K57A
VL: not shown
B8: SG-559-09 (antibody, human IgG1, kappa, V domains shown)
VH: B1 VH with H59F
VL: not shown
B9: SG-559-05 (antibody, human IgG1, kappa, V domains shown)
VH: B1 VH with F55A
VL: not shown
B10: SG-559-17 (antibody, human IgG1, kappa, V domains shown)
VH: B1 VH
VL: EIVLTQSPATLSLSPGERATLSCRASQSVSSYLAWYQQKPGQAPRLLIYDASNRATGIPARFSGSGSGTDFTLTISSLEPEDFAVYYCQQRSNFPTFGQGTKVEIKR
B11: SG-559-10 (antibody, human IgG1, kappa, V domains shown)
VH: B1 VH with S106A
VL: not shown
B12: SG-559-13 (antibody, human IgG1, kappa, V domains shown)
VH: B1 VH
VL: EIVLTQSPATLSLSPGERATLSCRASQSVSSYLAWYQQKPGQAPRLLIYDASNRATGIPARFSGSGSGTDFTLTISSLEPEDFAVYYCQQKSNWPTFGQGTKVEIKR
B13: SG-559-08 (antibody, human IgG1, kappa, V domains shown)
VH: B1 VH with H59A
VL: not shown
B14: SG-559-04 (antibody, human IgG1, kappa, V domains shown)
VH: B1 VH with P107G
VL: not shown
B15: SG-559-07 (antibody, human IgG1, kappa, V domains shown)
VH: B1 VH with K57R
VL: not shown
B16: SG-559-15 (antibody, human IgG1, kappa, V domains shown)
VH: B1 VH
VL: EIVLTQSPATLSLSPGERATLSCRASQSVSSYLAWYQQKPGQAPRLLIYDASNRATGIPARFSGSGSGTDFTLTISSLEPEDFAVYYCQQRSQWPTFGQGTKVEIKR
B17: SG-559-03 (antibody, human IgG1, kappa, V domains shown)
VH: B1 VH
VL: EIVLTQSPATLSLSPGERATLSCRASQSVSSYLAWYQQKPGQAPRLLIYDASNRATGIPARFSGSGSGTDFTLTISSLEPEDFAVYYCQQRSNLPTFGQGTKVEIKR
B18: SG-559-02 (antibody, human IgG1, kappa, V domains shown)
VH: B1 VH
VL: B1 VL
B19: SG-559-14 (antibody, human IgG1, kappa, V domains shown)
VH: B1 VH
VL: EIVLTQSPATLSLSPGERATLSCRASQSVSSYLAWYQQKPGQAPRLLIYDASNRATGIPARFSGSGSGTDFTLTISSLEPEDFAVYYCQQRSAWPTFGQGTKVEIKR
B20: SG-559-16 (antibody, human IgG1, kappa, V domains shown)
VH: B1 VH
VL: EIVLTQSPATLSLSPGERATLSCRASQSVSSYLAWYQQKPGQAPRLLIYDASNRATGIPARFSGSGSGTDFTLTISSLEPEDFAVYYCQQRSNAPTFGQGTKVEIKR

Molecular target: PD-L1 on cells (cancer cell lines expressing PD-L1; PD-L1+ aAPC/CHO-K1 cells) (human, UniProt Q9NZQ7 19-290)
Test: cell-based or functional assay

Sequence of PD-L1 on cells (cancer cell lines expressing PD-L1; PD-L1+ aAPC/CHO-K1 cells) (Q9NZQ7 19-290): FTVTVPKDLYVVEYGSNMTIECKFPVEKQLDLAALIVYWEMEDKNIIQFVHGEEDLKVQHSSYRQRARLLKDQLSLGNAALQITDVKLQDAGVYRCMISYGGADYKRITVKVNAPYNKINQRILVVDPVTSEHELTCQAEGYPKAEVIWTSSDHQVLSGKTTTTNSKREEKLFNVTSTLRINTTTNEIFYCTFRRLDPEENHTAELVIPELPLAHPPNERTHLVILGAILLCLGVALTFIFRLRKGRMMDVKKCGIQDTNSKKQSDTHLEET

Binder | x50 (50% reduction in viability, CellTiter-Glo, 96 h) on 786-O cells [ng/mL] | x50 (50% reduction in viability, CellTiter-Glo, 96 h) on BXPC3 cells [ng/mL] | x50 (50% reduction in viability, CellTiter-Glo, 96 h) on KARPAS 299 cells [ng/mL] | x50 (50% reduction in viability, CellTiter-Glo, 96 h) on L540CY cells [ng/mL] | x50 (50% reduction in viability, CellTiter-Glo, 96 h) on MDA-MB-231 cells [ng/mL]
B1 | > 3000 | 19.1 | 4.44 | 26 | 26
B2 | 283 | 20.1 | 6.72 | 9.97 | 10.2
B3 | > 3000 | 16.4 | 4.14 | 20.9 | 22.9
B4 | 190 | 23.3 | 5.95 | 10.7 | 7.89
B5 | > 3000 | 17.3 | 3.42 | 33.1 | 24.3
B6 | 1380 | 62.5 | 12.2 | 13.8 | 15.1

Molecular target: T1, human PD-L1 (Acro Biosciences) (human, UniProt Q9NZQ7 19-238)
T1 construct: Bought protein, used in solution as the analyte in BLI; also called hPD-L1; CD274
Test: BLI (Octet Red 384), antibody on anti-human Fab-CH1 sensors, human PD-L1 in solution, monovalent;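 also: after association, a 1000 s dissociation phase ran in buffer without PD-L1, on- and off-rate constants came from fitting the binding curves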

T1 sequence (Q9NZQ7 19-238 limits assumed): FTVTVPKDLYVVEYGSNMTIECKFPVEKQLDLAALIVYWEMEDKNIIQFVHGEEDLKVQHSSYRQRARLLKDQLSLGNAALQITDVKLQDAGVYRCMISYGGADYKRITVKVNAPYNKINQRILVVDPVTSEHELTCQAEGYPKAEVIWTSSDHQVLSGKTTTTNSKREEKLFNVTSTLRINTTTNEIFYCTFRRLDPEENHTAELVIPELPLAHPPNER

Binder | Kd [nM] | kon [M⁻¹ s⁻¹]
B7 | 79.9 | 313000
B8 | 25.5 | 260000
B9 | 119 | 357000
B10 | 12.5 | 456000
B11 | 288 | 410000
B12 | 4.3 | 381000
B13 | 66.6 | 329000
B14 | 25.6 | 390000
B15 | 10 | 285000
B16 | 7.5 | 462000
B17 | 24.5 | 490000
B18 | 33.3 | 420000
B19 | 8.9 | 399000
B20 | 24.7 | 386000

Molecular target: T1, human PD-L1 (Acro Biosciences)
Test: BLI (Octet Red 384), antibody on sensors, human PD-L1 in solution; head prints x10^3 S^-1, read as x10^-3 as KD = koff/kon requires

Binder | koff [s⁻¹]
B7 | 0.025
B8 | 0.00664
B9 | 0.0424
B10 | 0.0057
B11 | 0.118
B12 | 0.00162
B13 | 0.0219
B14 | 0.01
B15 | 0.00284
B16 | 0.00347
B17 | 0.012
B18 | 0.014
B19 | 0.00355
B20 | 0.00953
